T1: TX1BP3, O14907
T1 sequence (O14907 10-122, limits assumed, looked up): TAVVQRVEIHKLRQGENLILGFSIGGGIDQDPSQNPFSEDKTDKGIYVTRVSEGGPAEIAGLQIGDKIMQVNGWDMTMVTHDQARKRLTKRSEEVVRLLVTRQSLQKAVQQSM

T2: SYNJ2BP, P57105
T2 sequence (P57105 8-110, limits assumed, looked up): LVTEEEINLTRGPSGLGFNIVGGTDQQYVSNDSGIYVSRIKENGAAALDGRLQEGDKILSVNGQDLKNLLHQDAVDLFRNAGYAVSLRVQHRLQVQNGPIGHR

T3: DFNB31_2, Q9P202
T3 sequence (Q9P202 274-371, limits assumed, looked up): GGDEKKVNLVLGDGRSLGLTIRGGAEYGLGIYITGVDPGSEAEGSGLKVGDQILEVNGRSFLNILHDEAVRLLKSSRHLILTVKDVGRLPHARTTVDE

T4: ARHGAP21, Q5T5U3
T4 sequence (Q5T5U3 45-169, limits assumed, looked up): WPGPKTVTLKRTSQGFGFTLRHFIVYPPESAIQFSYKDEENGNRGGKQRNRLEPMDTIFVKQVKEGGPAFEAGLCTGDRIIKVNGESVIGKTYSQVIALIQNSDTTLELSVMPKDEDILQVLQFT

T5: HTRA3, P83110
T5 sequence (P83110 354-453, limits assumed, looked up): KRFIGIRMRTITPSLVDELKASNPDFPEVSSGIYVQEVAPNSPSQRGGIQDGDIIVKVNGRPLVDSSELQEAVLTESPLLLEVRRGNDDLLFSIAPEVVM

T6: PDZD2_2, O15018
T6 sequence (O15018 329-429, limits assumed, looked up): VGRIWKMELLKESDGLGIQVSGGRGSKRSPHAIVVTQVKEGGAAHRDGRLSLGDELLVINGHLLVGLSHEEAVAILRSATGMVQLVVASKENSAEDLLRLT

T7: LIN7A, O14910
T7 sequence (O14910 103-200, limits assumed, looked up): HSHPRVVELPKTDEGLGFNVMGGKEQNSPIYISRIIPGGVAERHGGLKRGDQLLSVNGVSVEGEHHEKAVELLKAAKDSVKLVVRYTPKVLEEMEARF

T8: GRIP1_7, Q9Y3R0
T8 sequence (Q9Y3R0 999-1096, limits assumed, looked up): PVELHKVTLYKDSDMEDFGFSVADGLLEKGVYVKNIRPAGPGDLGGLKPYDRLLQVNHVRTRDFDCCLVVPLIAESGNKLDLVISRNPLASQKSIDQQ


Key:
Test in all cases: holdup assay
Set-up in all cases: key: below the threshold = too weak to quantify, mostly under pKd 3.1 to 4
Conditions in all cases: plain residues with an end cap or a label only (N-terminal biotin on a linker: ado-ado)
DLG4_3, P78352 = target: DLG4_3, P78352
TX1BP3, O14907 = target: T1, TX1BP3, O14907
Inadl_8, Q8NI35 = target: Inadl_8, Q8NI35
TJP1_2, Q07157 = target: TJP1_2, Q07157
HTRA1, Q92743 = target: HTRA1, Q92743
GRID2IP_2, A4D2P6 = target: GRID2IP_2, A4D2P6
GORASP1, Q9BQQ3 = target: GORASP1, Q9BQQ3
Inadl_2, Q8NI35 = target: Inadl_2, Q8NI35
IL16_3, Q14005 = target: IL16_3, Q14005
Inadl_10, Q8NI35 = target: Inadl_10, Q8NI35
FRMPD4, Q14CM0 = target: FRMPD4, Q14CM0
SYNJ2BP, P57105 = target: T2, SYNJ2BP, P57105
PICK1, Q9NRD5 = target: PICK1, Q9NRD5
DLG2_2, Q15700 = target: DLG2_2, Q15700
MAGI3_2, Q5TCQ9 = target: MAGI3_2, Q5TCQ9
DFNB31_2, Q9P202 = target: T3, DFNB31_2, Q9P202
ARHGAP21, Q5T5U3 = target: T4, ARHGAP21, Q5T5U3
GRIP2_3, Q9C0E4 = target: GRIP2_3, Q9C0E4
FRMPD2_1, Q68DX3 = target: FRMPD2_1, Q68DX3
DLG5_1, Q8TDM6 = target: DLG5_1, Q8TDM6
HTRA3, P83110 = target: T5, HTRA3, P83110
SCRIB_2, Q14160 = target: SCRIB_2, Q14160
LNX1_2, Q8TBB1 = target: LNX1_2, Q8TBB1
MAGI2_3, Q86UL8 = target: MAGI2_3, Q86UL8
MAGI2_5, Q86UL8 = target: MAGI2_5, Q86UL8
PDZD2_2, O15018 = target: T6, PDZD2_2, O15018
LIN7A, O14910 = target: T7, LIN7A, O14910
GRIP1_7, Q9Y3R0 = target: T8, GRIP1_7, Q9Y3R0
Inadl_5, Q8NI35 = target: Inadl_5, Q8NI35
Sequence of Inadl_5, Q8NI35 (Q8NI35 673-780): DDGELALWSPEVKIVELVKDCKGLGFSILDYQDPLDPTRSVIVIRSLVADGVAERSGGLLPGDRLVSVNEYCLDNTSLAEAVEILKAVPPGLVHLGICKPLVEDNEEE

Sequence of GORASP1, Q9BQQ3 (Q9BQQ3 1-208): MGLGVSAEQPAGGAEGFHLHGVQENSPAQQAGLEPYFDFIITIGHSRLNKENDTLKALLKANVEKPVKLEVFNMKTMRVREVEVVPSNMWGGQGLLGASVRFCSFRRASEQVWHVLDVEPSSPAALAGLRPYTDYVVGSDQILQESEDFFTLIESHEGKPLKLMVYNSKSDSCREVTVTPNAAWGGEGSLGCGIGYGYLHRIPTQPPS
Sequence of LNX1_2, Q8TBB1 (Q8TBB1 371-470): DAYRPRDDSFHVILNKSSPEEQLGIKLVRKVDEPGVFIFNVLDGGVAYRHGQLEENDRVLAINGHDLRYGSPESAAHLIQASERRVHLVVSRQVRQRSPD
Sequence of GRIP2_3, Q9C0E4 (Q9C0E4 238-339): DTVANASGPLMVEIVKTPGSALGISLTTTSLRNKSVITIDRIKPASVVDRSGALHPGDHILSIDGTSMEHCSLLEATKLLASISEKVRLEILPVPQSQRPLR
Sequence of MAGI3_2, Q5TCQ9 (Q5TCQ9 398-503): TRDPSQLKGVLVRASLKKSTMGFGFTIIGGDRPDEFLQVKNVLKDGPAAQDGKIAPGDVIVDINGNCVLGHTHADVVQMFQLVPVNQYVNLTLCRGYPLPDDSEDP
Sequence of TJP1_2, Q07157 (Q07157 181-274): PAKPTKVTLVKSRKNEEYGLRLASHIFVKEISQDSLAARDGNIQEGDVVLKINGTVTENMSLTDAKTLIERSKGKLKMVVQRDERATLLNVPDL
Sequence of DLG4_3, P78352 (P78352 306-403): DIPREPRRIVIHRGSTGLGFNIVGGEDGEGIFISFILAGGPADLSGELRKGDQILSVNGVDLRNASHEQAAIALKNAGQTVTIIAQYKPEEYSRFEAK
Sequence of PICK1, Q9NRD5 (Q9NRD5 17-115): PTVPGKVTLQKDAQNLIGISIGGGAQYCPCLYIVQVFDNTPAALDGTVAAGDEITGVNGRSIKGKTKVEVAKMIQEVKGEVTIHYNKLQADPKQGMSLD
Sequence of DLG2_2, Q15700 (Q15700 189-283): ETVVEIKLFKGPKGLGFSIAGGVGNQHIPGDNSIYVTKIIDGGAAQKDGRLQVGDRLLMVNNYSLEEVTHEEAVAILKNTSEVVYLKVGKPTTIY
Sequence of HTRA1, Q92743 (Q92743 360-477): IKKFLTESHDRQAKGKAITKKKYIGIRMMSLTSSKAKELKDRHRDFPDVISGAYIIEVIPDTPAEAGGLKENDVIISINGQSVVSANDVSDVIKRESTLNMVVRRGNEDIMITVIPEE
Sequence of FRMPD4, Q14CM0 (Q14CM0 67-160): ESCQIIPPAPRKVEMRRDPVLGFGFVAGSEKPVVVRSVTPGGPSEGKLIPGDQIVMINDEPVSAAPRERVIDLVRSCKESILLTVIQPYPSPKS
Sequence of MAGI2_3, Q86UL8 (Q86UL8 600-682): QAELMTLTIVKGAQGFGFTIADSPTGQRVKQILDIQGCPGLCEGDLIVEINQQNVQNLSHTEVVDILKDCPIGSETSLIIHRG
Sequence of Inadl_10, Q8NI35 (Q8NI35 1673-1763): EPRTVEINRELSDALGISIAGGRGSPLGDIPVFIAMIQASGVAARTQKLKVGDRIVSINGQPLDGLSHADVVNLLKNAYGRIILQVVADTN
Sequence of MAGI2_5, Q86UL8 (Q86UL8 915-1017): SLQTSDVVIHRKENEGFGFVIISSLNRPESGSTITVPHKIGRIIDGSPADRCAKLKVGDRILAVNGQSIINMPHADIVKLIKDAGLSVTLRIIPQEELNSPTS
Sequence of Inadl_2, Q8NI35 (Q8NI35 238-335): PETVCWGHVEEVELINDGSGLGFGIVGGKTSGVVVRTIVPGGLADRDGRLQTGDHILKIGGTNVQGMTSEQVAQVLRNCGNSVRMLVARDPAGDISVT
Sequence of Inadl_8, Q8NI35 (Q8NI35 1425-1530): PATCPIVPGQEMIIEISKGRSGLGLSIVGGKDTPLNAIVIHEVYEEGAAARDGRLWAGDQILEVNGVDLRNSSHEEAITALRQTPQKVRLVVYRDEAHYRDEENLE
Sequence of DLG5_1, Q8TDM6 (Q8TDM6 617-713): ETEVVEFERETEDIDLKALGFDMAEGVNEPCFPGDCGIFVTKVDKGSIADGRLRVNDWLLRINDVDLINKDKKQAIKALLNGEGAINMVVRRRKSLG
Sequence of FRMPD2_1, Q68DX3 (Q68DX3 770-861): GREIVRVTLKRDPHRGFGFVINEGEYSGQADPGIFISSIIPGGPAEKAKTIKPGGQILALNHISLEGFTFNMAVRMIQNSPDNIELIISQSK
Sequence of SCRIB_2, Q14160 (Q14160 857-960): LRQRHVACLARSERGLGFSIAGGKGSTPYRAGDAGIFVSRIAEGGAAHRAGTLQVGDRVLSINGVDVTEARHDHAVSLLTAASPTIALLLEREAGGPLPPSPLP
Sequence of GRID2IP_2, A4D2P6 (A4D2P6 272-370): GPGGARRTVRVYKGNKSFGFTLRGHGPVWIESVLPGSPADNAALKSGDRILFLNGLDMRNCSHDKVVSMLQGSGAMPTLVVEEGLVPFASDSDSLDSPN
Sequence of IL16_3, Q14005 (Q14005 1107-1207): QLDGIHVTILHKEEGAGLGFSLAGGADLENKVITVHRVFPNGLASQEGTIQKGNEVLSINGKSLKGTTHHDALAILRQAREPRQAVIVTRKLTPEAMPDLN

| pKd (DLG4_3, P78352) | pKd (TX1BP3, O14907) | pKd (Inadl_8, Q8NI35) | pKd (TJP1_2, Q07157) | pKd (HTRA1, Q92743) | pKd (GRID2IP_2, A4D2P6) | pKd (GORASP1, Q9BQQ3) | pKd (Inadl_2, Q8NI35) | pKd (IL16_3, Q14005) | pKd (Inadl_10, Q8NI35) | pKd (FRMPD4, Q14CM0) | pKd (SYNJ2BP, P57105) | pKd (PICK1, Q9NRD5) | pKd (DLG2_2, Q15700) | pKd (MAGI3_2, Q5TCQ9) | pKd (DFNB31_2, Q9P202) | pKd (ARHGAP21, Q5T5U3) | pKd (GRIP2_3, Q9C0E4) | pKd (FRMPD2_1, Q68DX3) | pKd (DLG5_1, Q8TDM6) | Binder | also measured |
| --- | --- | --- | --- | --- | --- | --- | --- | --- | --- | --- | --- | --- | --- | --- | --- | --- | --- | --- | --- | --- | --- |
| 3.59 | 3.97 | 3.81 | below the threshold | 3.74 | 3.8 | below the threshold | below the threshold | below the threshold | below the threshold | below the threshold | 4.42 | below the threshold | 3.67 | 4.38 | below the threshold | below the threshold | below the threshold | below the threshold | below the threshold | NLQEHSTTSV [RSBN1, Q5VWQ0] | pKd (HTRA3, P83110): below the threshold; pKd (SCRIB_2, Q14160): below the threshold; pKd (LNX1_2, Q8TBB1): below the threshold; pKd (MAGI2_3, Q86UL8): below the threshold; pKd (MAGI2_5, Q86UL8): 3.48; pKd (PDZD2_2, O15018): 4.52; pKd (LIN7A, O14910): below the threshold; pKd (GRIP1_7, Q9Y3R0): below the threshold; pKd (Inadl_5, Q8NI35): below the threshold |
| below the threshold | 3.87 | below the threshold | below the threshold | below the threshold | below the threshold | below the threshold | below the threshold | below the threshold | below the threshold | 4.95 | 4.33 | below the threshold | below the threshold | below the threshold | below the threshold | 3.58 | below the threshold | below the threshold | below the threshold | IPGKEFDTPL [PLCB1, Q9NQ66] | pKd (HTRA3, P83110): below the threshold; pKd (SCRIB_2, Q14160): below the threshold; pKd (LNX1_2, Q8TBB1): below the threshold; pKd (MAGI2_3, Q86UL8): below the threshold; pKd (MAGI2_5, Q86UL8): below the threshold; pKd (PDZD2_2, O15018): 3.62; pKd (LIN7A, O14910): below the threshold; pKd (GRIP1_7, Q9Y3R0): below the threshold; pKd (Inadl_5, Q8NI35): below the threshold |
| below the threshold | below the threshold | below the threshold | below the threshold | below the threshold | below the threshold | below the threshold | below the threshold | below the threshold | below the threshold | below the threshold | below the threshold | below the threshold | below the threshold | below the threshold | below the threshold | below the threshold | below the threshold | below the threshold | below the threshold | DHLGGGGESM [TNRC6A, Q8NDV7] | pKd (HTRA3, P83110): below the threshold; pKd (SCRIB_2, Q14160): below the threshold; pKd (LNX1_2, Q8TBB1): below the threshold; pKd (MAGI2_3, Q86UL8): below the threshold; pKd (MAGI2_5, Q86UL8): below the threshold; pKd (PDZD2_2, O15018): below the threshold; pKd (LIN7A, O14910): below the threshold; pKd (GRIP1_7, Q9Y3R0): below the threshold; pKd (Inadl_5, Q8NI35): below the threshold |

Continued, binder first:

| Binder | pKd (DLG4_3, P78352) | pKd (TX1BP3, O14907) | pKd (Inadl_8, Q8NI35) | pKd (TJP1_2, Q07157) | pKd (HTRA1, Q92743) | pKd (GRID2IP_2, A4D2P6) | pKd (GORASP1, Q9BQQ3) | pKd (Inadl_2, Q8NI35) | pKd (IL16_3, Q14005) | pKd (Inadl_10, Q8NI35) | pKd (FRMPD4, Q14CM0) | pKd (SYNJ2BP, P57105) | pKd (PICK1, Q9NRD5) | pKd (DLG2_2, Q15700) | pKd (MAGI3_2, Q5TCQ9) | pKd (DFNB31_2, Q9P202) | pKd (ARHGAP21, Q5T5U3) | pKd (GRIP2_3, Q9C0E4) | pKd (FRMPD2_1, Q68DX3) | pKd (DLG5_1, Q8TDM6) | also measured |
| --- | --- | --- | --- | --- | --- | --- | --- | --- | --- | --- | --- | --- | --- | --- | --- | --- | --- | --- | --- | --- | --- |
| HLRQQGSVEV [EPHB6, O15197] | below the threshold | 3.85 | below the threshold | below the threshold | 4.59 | below the threshold | below the threshold | below the threshold | below the threshold | below the threshold | below the threshold | below the threshold | below the threshold | below the threshold | below the threshold | below the threshold | 4.16 | below the threshold | 4.14 | below the threshold | pKd (HTRA3, P83110): 3.81; pKd (SCRIB_2, Q14160): below the threshold; pKd (LNX1_2, Q8TBB1): 4.1; pKd (MAGI2_3, Q86UL8): below the threshold; pKd (MAGI2_5, Q86UL8): below the threshold; pKd (PDZD2_2, O15018): below the threshold; pKd (LIN7A, O14910): below the threshold; pKd (GRIP1_7, Q9Y3R0): below the threshold; pKd (Inadl_5, Q8NI35): below the threshold |
| TGLWKSETTV [ADGRA2, Q96PE1] | 4.47 | 4.87 | 3.65 | 3.6 | 4.27 | below the threshold | 3.5 | below the threshold | below the threshold | below the threshold | below the threshold | 5.08 | below the threshold | 5.16 | 5.6 | below the threshold | 4.03 | below the threshold | below the threshold | below the threshold | pKd (HTRA3, P83110): below the threshold; pKd (SCRIB_2, Q14160): 4.31; pKd (LNX1_2, Q8TBB1): 3.89; pKd (MAGI2_3, Q86UL8): below the threshold; pKd (MAGI2_5, Q86UL8): 4.12; pKd (PDZD2_2, O15018): 3.81; pKd (LIN7A, O14910): 3.93; pKd (GRIP1_7, Q9Y3R0): below the threshold; pKd (Inadl_5, Q8NI35): below the threshold |

From PMC9482650, “Quantitative fragmentomics allow affinity mapping of interactomes” (Nature Communications, 2022)
